Laboratory results from patent publication CN117412992A (NOVIMMUNE SA, dated 2024).

B1: K2xS23 CD47xPD-L1 bispecific antibody (bispecific antibody, human IgG1, kappa, lambda)
heavy: not shown
light 1: not shown
light 2: QSALTQPASVSGSPGQSITISCTGTSSDVAKIPLVSWYQQHPGKAPKLMIYFASLRPSGVSNRFSGSKSGNTASLTISGLQAEDEADYYCSSWDNAGDGHVFGGGTKLTVLGQPKAAPSVTLFPPSSEELQANKATLVCLISDFYPGAVTVAWKADSSPVKAGVETTTPSKQSNNKYAASSYLSLTPEQWKSHRSYSCQVTHEGSTVEKTVAPTECS
notes: kappa-lambda body with a common heavy chain; also called K2xS23 bsAb
B2: S100 anti-PD-L1 mAb (antibody, human IgG1, lambda, V domains shown)
VH: not shown
VL: QSVLTQPPSASGTPGQRVTISCSGSSSNIENKPVNWYQQLPGTAPKLLIYHDTTRPSGVPDRFSGSKSGTSASLAISGLQSEDEADYYCAAWDFATWPATEVFGGGTKLTVLG
notes: bivalent monospecific anti-PD-L1 IgG; also called S100抗PD-L1 mAb
B3: S79 anti-PD-L1 mAb (antibody, human IgG1, lambda, V domains shown)
VH: not shown
VL: QSALTQPASVSGSPGQSITISCTGTSSDVFRPPLVSWYQQHPGKAPKLMIYFASLRPSGVSNRFSGSKSGNTASLTISGLQAEDEADYYCSSWDHTGDGHVFGGGTKLTVLG
notes: also called S79_Sc3_1G7_VLCL2 aPDL1 IGLV2-23; S79抗PD-L1 mAb

Tests used:
[1] = target: T1, recombinant human PD-L1 soluble protein, biotinylated (ACROBiosystems) (human, UniProt Q9NZQ7 19-238, biotinylated); test: BLI (Table 7) and ELISA (Fig. 1A) on recombinant PD-L1
T1 construct: Bought soluble protein; also called 重组人PD-L1; 人PD-L1

[2] = target: T2, human CD47 on cells (Raji, Nalm-6, HT-1080 tumour cells; human red blood cells) (human, UniProt Q08722 19-323); test: flow cytometry on human red blood cells (CD47+, PD-L1-)
T2 construct: whole, on cells

[3] = target: T3, human PD-L1 on cells (hPD-L1-transfected CHO cells; IFNg-induced HT-1080 tumour cells) (human, UniProt Q9NZQ7 19-290); test: flow cytometry on IFNg-preactivated PD-L1+ CD47+ HT-1080 cells, co-engagement of both targets
T3 construct: whole, on cells

[4] = target: T3, human PD-L1 on cells …; test: cell-based competition: inhibition of human PD-1-moFc binding to IFNg-induced PD-L1+ CD47+ HT-1080 cells, CellInsight CX5

| Binder | binding result [1] | binding result [2] | binding result [3] | IC50 [4] |
| --- | --- | --- | --- | --- |
| B1 | binds | binds | binds | – |
| B2 | – | – | – | 0.84 pM |
| B3 | – | – | – | 2.52 pM |
